Assay results as given in patent US20210340217A1, “NOVEL PEPTIDES AND COMBINATION OF PEPTIDES FOR USE IN IMMUNOTHERAPY AGAINST OVARIAN CANCER AND OTHER CANCERS” (Immatics Biotechnologies GmbH, priority 2017, published 2021).

Key:
HLA-A*03:01 = HLA-A*03:01 (Homo sapiens, UniProt P04439); assay: MHC binding assay (UV-ligand exchange, beta2m ELISA); settings: peptide exchange yield
How it was run: (§1)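 Peptide–MHC complexes formed by UV-induced exchange of a UV-cleavable peptide for the test peptide. Exchange yield measured by streptavidin-capture ELISA detecting β2m (HRP anti-β2m, TMB, A450) on 100-fold diluted samples. Quantified against refolded HLA-A*02:01/MLA-001 standards (15-500 ng/ml).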

HLA-B*44:02 = HLA-B*44:02 (Homo sapiens, UniProt P01889, A223V/A65T/A93T/A95T/D201E/D98Y/E176V/E187L/E204Q/E69K/G107R/H137Y/K202T/L105A/L119I/N104T/N87E/Q56L/Q94N/R106L/R155S/R180D/S101N/S121R/S35A/S48T/T118I/V36M/W191S/Y140D/Y91S); assay: as above; settings: peptide exchange yield
How it was run: as §1

Peptide exchange (HLA-A*03:01)	Peptide exchange (HLA-B*44:02)	Substance
++++ (>75% = ++++)		20 (RMASPVNVK; listed as Homo sapiens) [compound 20]
+++ (>50 = +++)		21 (AVRKPIVLK; listed as Homo sapiens) [compound 21]
++ (>20% = ++)		22 (SLKERNPLK; listed as Homo sapiens) [compound 22]
+++ (>50 = +++)		23 (GMMKGGIRK; listed as Homo sapiens) [compound 23]
+++ (>50 = +++)		24 (SMYYPLQLK; listed as Homo sapiens) [compound 24]
++ (>20% = ++)		25 (GTSPPSVEK; listed as Homo sapiens) [compound 25]
++ (>20% = ++)		26 (RISEYLLEK; listed as Homo sapiens) [compound 26]
+++ (>50 = +++)		27 (VLYGPAGLGK; listed as Homo sapiens) [compound 27]
+++ (>50 = +++)		28 (KTYETNLEIKK; listed as Homo sapiens) [compound 28]
++ (>20% = ++)		30 (ALEVAHRLK; listed as Homo sapiens) [compound 30]
+++ (>50 = +++)		83 (GTYAHTVNR; listed as Homo sapiens) [compound 83]
++ (>20% = ++)		84 (KLQPAQTAAK; listed as Homo sapiens) [compound 84]
++ (>20% = ++)		85 (VLLGSLFSRK; listed as Homo sapiens) [compound 85]
++ (>20% = ++)		86 (VVLLGSLFSRK; listed as Homo sapiens) [compound 86]
++ (>20% = ++)		87 (AVAPPTPASK; listed as Homo sapiens) [compound 87]
+++ (>50 = +++)		88 (VVHAVFALK; listed as Homo sapiens) [compound 88]
++ (>20% = ++)		89 (RVAELLLLH; listed as Homo sapiens) [compound 89]
+++ (>50 = +++)		90 (KVAGERYVYK; listed as Homo sapiens) [compound 90]
++ (>20% = ++)		91 (RSLRYYYEK; listed as Homo sapiens) [compound 91]
++ (>20% = ++)		93 (KILEEHTNK; listed as Homo sapiens) [compound 93]
+++ (>50 = +++)		94 (ATFERVLLR; listed as Homo sapiens) [compound 94]
++ (>20% = ++)		95 (QSMYYPLQLK; listed as Homo sapiens) [compound 95]
++ (>20% = ++)		98 (LLQPPPLLAR; listed as Homo sapiens) [compound 98]
++ (>20% = ++)		99 (KVVDRWNEK; listed as Homo sapiens) [compound 99]
+++ (>50 = +++)		100 (RLFTSPIMTK; listed as Homo sapiens) [compound 100]
++ (>20% = ++)		101 (RVFTSSIKTK; listed as Homo sapiens) [compound 101]
++ (>20% = ++)		102 (SVLTSSLVK; listed as Homo sapiens) [compound 102]

Peptide exchange (HLA-A*03:01)	Peptide exchange (HLA-B*44:02)	Substance
++ (>20% = ++)		104 (VLADSVTTK; listed as Homo sapiens) [compound 104]
+++ (>50 = +++)		105 (RLFSWLVNR; listed as Homo sapiens) [compound 105]
++ (>20% = ++)		106 (AAFVPLLLK; listed as Homo sapiens) [compound 106]
+++ (>50 = +++)		107 (RLQEWKALK; listed as Homo sapiens) [compound 107]
++ (>20% = ++)		109 (KTFTIKRFLAK; listed as Homo sapiens) [compound 109]
++ (>20% = ++)		110 (SAAPPSYFR; listed as Homo sapiens) [compound 110]
++ (>20% = ++)		256 (RTEEVLLTFK; listed as Homo sapiens) [compound 256]
+ (>10% = +)		257 (VTADHSHVF; listed as Homo sapiens) [compound 257]
+++ (>50 = +++)		258 (GAYAHTVNR; listed as Homo sapiens) [compound 258]
++ (>20% = ++)		259 (KTLELRVAY; listed as Homo sapiens) [compound 259]
+++ (>50 = +++)		260 (GTNTVILEY; listed as Homo sapiens) [compound 260]
++ (>20% = ++)		261 (HTFGLFYQR; listed as Homo sapiens) [compound 261]
++ (>20% = ++)		262 (RSRLNPLVQR; listed as Homo sapiens) [compound 262]
++ (>20% = ++)		263 (SSSSATISK; listed as Homo sapiens) [compound 263]
++ (>20% = ++)		264 (AIKVIPTVFK; listed as Homo sapiens) [compound 264]
++ (>20% = ++)		265 (QIHDHVNPK; listed as Homo sapiens) [compound 265]
+++ (>50 = +++)		266 (ISYSGQFLVK; listed as Homo sapiens) [compound 266]
++ (>20% = ++)		267 (VTDLISPRK; listed as Homo sapiens) [compound 267]
+++ (>50 = +++)		269 (RLKGDAWVYK; listed as Homo sapiens) [compound 269]
++ (>20% = ++)		270 (AVFNPRFYRTY; listed as Homo sapiens) [compound 270]
+++ (>50 = +++)		271 (RMFADDLHNLNK; listed as Homo sapiens) [compound 271]
++ (>20% = ++)		272 (RQPERTILRPR; listed as Homo sapiens) [compound 272]
+++ (>50 = +++)		273 (RVNAIPFTY; listed as Homo sapiens) [compound 273]
+ (>10% = +)		274 (KTFPASTVF; listed as Homo sapiens) [compound 274]
	“+++” (>50 = +++)	409 (REFVLSKGDAGL; listed as Homo sapiens) [compound 409]
	“+” (>10% = +)	410 (SEDPSKLEA; listed as Homo sapiens) [compound 410]
	“+” (>10% = +)	411 (LELPPILVY; listed as Homo sapiens) [compound 411]

Peptide exchange (HLA-A*03:01)	Peptide exchange (HLA-B*44:02)	Substance
	“++” (>20% = ++)	412 (QEILTQVKQ; listed as Homo sapiens) [compound 412]
	“++” (>20% = ++)	413 (IEALSGKIEL; listed as Homo sapiens) [compound 413]
	“++” (>20% = ++)	414 (EDAALFKAW; listed as Homo sapiens) [compound 414]
	“+++” (>50 = +++)	415 (REEDAALFKAW; listed as Homo sapiens) [compound 415]
	“+++” (>50 = +++)	416 (SEEETRVVF; listed as Homo sapiens) [compound 416]
	“++” (>20% = ++)	417 (AEHFSMIRA; listed as Homo sapiens) [compound 417]
	“+++” (>50 = +++)	418 (FEDAQGHIW; listed as Homo sapiens) [compound 418]
	“++” (>20% = ++)	419 (HEFGHVLGL; listed as Homo sapiens) [compound 419]
	“+” (>10% = +)	420 (FESHSTVSA; listed as Homo sapiens) [compound 420]
	“++” (>20% = ++)	421 (GEPATTVSL; listed as Homo sapiens) [compound 421]
	“+++” (>50 = +++)	422 (SETTFSLIF; listed as Homo sapiens) [compound 422]
	“++” (>20% = ++)	423 (SEVPTGTTA; listed as Homo sapiens) [compound 423]
	“+” (>10% = +)	424 (TEFPLFSAA; listed as Homo sapiens) [compound 424]
	“+++” (>50 = +++)	425 (SEVPLPMAI; listed as Homo sapiens) [compound 425]
	“+” (>10% = +)	426 (PEKTTHSF; listed as Homo sapiens) [compound 426]
	“++” (>20% = ++)	427 (HESSSHHDL; listed as Homo sapiens) [compound 427]
	“++” (>20% = ++)	429 (REKFIASVI; listed as Homo sapiens) [compound 429]
	“++” (>20% = ++)	431 (AEQDPDELNKA; listed as Homo sapiens) [compound 431]
	“+” (>10% = +)	432 (EEQYIAQF; listed as Homo sapiens) [compound 432]
	“+” (>10% = +)	433 (SDSQVRAF; listed as Homo sapiens) [compound 433]
	“++” (>20% = ++)	434 (KEAIREHQM; listed as Homo sapiens) [compound 434]
	“++” (>20% = ++)	435 (REEFVSIDHL; listed as Homo sapiens) [compound 435]
	“++” (>20% = ++)	436 (REPGDIFSEL; listed as Homo sapiens) [compound 436]
	“++” (>20% = ++)	437 (TEAVVTNEL; listed as Homo sapiens) [compound 437]
	“+++” (>50 = +++)	438 (SEVDSPNVL; listed as Homo sapiens) [compound 438]
